For one assay, the target named is Notch1 of HPB-ALL cells (human, UniProt P46531 19-2555). As to the kind of experiment: cell-based or functional assay.
For the next assay, the target named is T1, human Notch1-NRRHD (human, UniProt P46531 19-43; P46531 1446-1733).
T1 construct: domain: Notch1-NRRHD (nucleotide 1-129);domain: Notch1-NRRHD (nucleotide 4338-5202); If counted from the start codon they are about residues 1-43 and 1447-1734 (my conversion); Used as conditioned medium; also called huN1-NRRHD; human Notch1 antigen
T1 sequence (looked up): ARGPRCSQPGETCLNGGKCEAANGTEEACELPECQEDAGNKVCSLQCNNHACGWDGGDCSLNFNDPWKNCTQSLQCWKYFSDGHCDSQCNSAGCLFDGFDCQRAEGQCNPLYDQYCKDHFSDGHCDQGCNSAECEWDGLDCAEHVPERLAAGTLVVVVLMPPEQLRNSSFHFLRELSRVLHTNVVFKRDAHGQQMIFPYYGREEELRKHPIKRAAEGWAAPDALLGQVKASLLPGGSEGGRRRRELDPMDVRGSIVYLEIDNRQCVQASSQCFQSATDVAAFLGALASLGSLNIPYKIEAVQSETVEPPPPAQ
The assay is described as follows: ELISA on coated conditioned medium. The source says:
(§1) We further made domain-swap chimeric Notch1-NRRHD expression constructs using the human Notch1-NRRHD sequence (Nucleotide 1-129 and 4338-5202, NCBI Accession # NM_{—}017617) as frame work, systematically exchanged the human Lin-A, Lin-B or HD-C domains with the corresponding mouse domains.
(In general: An ELISA detects its analyte on a solid surface through an enzyme-linked reagent.)

The target of assay [1] is T2, murine Notch1-NRRHD (mouse, UniProt Q01705 19-33; Q01705 1443-1723).
T2 construct: domain: Notch1-NRRHD (nucleotide 1-99);domain: Notch1-NRRHD (nucleotide 4327 to 5169); Nucleotide limits only; if counted from the start codon they are residues 1-33 and 1443-1723 (my conversion); Used as conditioned medium; also called MuN1-NRRHD; mouse Notch1
T2 sequence (looked up): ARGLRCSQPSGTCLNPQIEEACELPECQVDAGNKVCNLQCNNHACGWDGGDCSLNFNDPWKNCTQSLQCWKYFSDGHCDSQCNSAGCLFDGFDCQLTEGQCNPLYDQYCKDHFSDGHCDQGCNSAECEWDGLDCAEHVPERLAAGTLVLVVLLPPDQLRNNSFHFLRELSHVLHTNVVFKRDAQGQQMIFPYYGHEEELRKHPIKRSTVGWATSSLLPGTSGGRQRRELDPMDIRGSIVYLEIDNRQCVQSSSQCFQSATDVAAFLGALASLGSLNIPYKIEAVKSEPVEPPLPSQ
The assay is described as follows: ELISA on coated conditioned medium.
Text: as §1

The target of assay [2] is T3, Notch1 chimeric antigen, Lin-B domain swapped with murine sequence.
T3 construct: also called Mu/Lin-B
The assay is described as follows: ELISA on coated conditioned medium.
Text: as §1

The target of assay [3] is T4, Notch1 chimeric antigen, HD-C domain swapped with murine sequence.
T4 construct: also called Mu/HD-C
The assay is described as follows: ELISA on coated conditioned medium.
Text: as §1

Assay [4] concerns the target T5, N1-NRR-TM(-)/Fc fusion protein (human).
T5 construct: Secreted from 293-F cells, purified on protein G; also called Notch1-NRR-TM(-)/Fc; N1-NRR-TM(-)Fc protein; not shown: Human Fc of the Fc-fusion vector, fused C-terminal of the immunogen, plus any junction residues
T5 chain: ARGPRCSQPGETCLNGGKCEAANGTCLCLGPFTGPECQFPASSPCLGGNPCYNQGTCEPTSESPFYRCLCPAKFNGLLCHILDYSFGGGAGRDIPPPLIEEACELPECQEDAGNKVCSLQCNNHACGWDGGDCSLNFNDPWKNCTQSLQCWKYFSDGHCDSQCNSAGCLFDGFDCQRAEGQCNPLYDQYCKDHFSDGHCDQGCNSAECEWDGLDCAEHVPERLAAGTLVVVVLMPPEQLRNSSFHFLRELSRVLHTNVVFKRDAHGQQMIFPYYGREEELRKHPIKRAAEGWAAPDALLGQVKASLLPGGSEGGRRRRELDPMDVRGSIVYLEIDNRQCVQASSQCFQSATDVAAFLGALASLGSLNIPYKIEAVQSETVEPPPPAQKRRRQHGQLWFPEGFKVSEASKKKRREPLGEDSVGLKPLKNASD
The assay is described as follows: SPR, Biacore 3000, N1-NRR-TM(-)Fc captured on Protein A, mAb injected. How it is done: Protein A was amine-coupled at saturating levels onto the chip using a standard N-hydroxysuccinimide/ethyldimethylaminopropyl carbodiimide (NHS/EDC) chemistry. N1-NRR-TM(−)Fc protein (described in Example 1) was captured to the chip surface by Protein A in all three flow cells at 40, 13, 4 ug/ml. […] Dissociation was monitored for 20 minutes. The chip was regenerated after the last injection of each titration with two 30 second pulses of 100 mM phosphoric acid. Buffer cycles provided blanks for double-referencing the data, which were then fit globally to a simple binding model using Biaevaluation software v.4.1. Affinities were deduced from the quotient of the kinetic rate constants (KD=koff/kₒₙ).
For orientation: SPR reads the build-up and loss of mass on a sensor chip optically.

Assay [5] deals with T6, Notch1 chimeric antigen, Lin-A domain swapped with corresponding Notch2 domain.
T6 construct: Used as conditioned medium of transfected 293-F cells
As to the kind of experiment: ELISA, conditioned medium of chimeric antigen coated, 300 ng mAb per well. The protocol:
(§2) For understanding the mechanism of action by Notch1-antagonist mAb, binding epitopes of Notch1-antagonist mAbs were analyzed by domain swap and ELISA binding assay. The Notch1-NRR-TM(−)/Fc protein was divided into six domains: EGF (including EGF35-36), Lin12-A (or Lin-A), Lin-B, Lin-C, heterodimerization domain-N (or HD-N) and HD-C (FIG. 5). Each of the domains were swapped for that corresponding to human Notch2 by PCR synthesis in a series of chimeric Notch1-NRR-TM(−)/Fc expression constructs. The domain-swap plasmids were transfected in Freestyle™ 293-F cells (Invitrogen, Inc., Calsbad, Calif.) using Freestyle™ Max Reagent (Invitrogen) as described above in Example 1. After being cultured for three days, the conditioned media was subjected to Western blot analysis and an ELISA binding assay by Notch1 mAbs.
(§3) In ELISA assay, the 100 microliters of the conditioned medium from the above antigen plasmids-transfected cell culture were loaded in each well of the 96-well plate, and plates were incubated at room temperature for 4 hours or 4° C. for overnight. The condition medium was then removed from the coated plates. For primary antibody binding, 300 ng of each mAb (Table 3) in 100 microliters of PBS was added to the coated well. The rest of the ELISA procedure is the same as described in Example 2.

For assay [6], the target named is T7, Notch1 chimeric antigen, Lin-C domain swapped with corresponding Notch2 domain.
T7 construct: Used as conditioned medium of transfected 293-F cells
The assay is described as above. How it is done: as §2, §3

The target of assay [7] is T8, Notch1 chimeric antigen, HD-N domain swapped with corresponding Notch2 domain.
T8 construct: Used as conditioned medium of transfected 293-F cells
The assay is described as above. How it is done: as §2, §3

Assay [8] concerns the target T9, Notch1 chimeric antigen, HD-C domain swapped with corresponding Notch2 domain.
T9 construct: Used as conditioned medium of transfected 293-F cells
Described as above. How it is done:
as §2, §3

The target in assay [9] is T10, Notch1 chimeric antigen, EGF domain swapped with corresponding Notch2 domain.
T10 construct: Used as conditioned medium of transfected 293-F cells
The description is as above. The protocol:
as §2, §3

In assay [10] the target is T2, murine Notch1-NRRHD. As to the kind of experiment: heading printed under Table 3; it introduces the following ELISA experiment with human and murine Notch1-NRRHD.
Text: as §1

The term Kd denotes a measure of binding affinity in units of concentration. A lower Kd goes with higher affinity. In general, koff refers to a measure of how fast the partners let go of each other.

Several values for one entry are separate records, joined by “and”; a condition that tells them apart may be missing. Identical values can stand only once. Bounds are passed on as bounds.

B1: mouse monoclonal antibody N248A (antibody, IgG1, V domains shown)
VH: QVQLQQSGAELMKPGASVKISCKATGYTFSNYWMEWVKQRPGHGLEWIGEILPGRGRTNYNENFKGKATFTADTSSNTVYMQLNSLTSEDSAVYYCARFHSSAYYYTMDYWGQRTSVTVSS
VL: QAVVTQESALTTSPGETVTLTCRSSTGAVTTSNYANWVQEKPDHLFTGLIGGTNNRAPGIPARFSGSLIGDKAALTITGAQTEDEAIYFCALWYSNHWVFGGGTKLTVL
notes: treated as one antibody; also called mAb N248A; N248A1
For B1, the “IC50 of cell growth inhibition, HPB-ALL cells, 7 days” value in the assay with Notch1 of HPB-ALL cells is ~0.78 µg/ml and ~5.2 nM. Moreover, the ELISA reading in the assay with human Notch1-NRRHD turned out to be 3.13; in the assay with murine Notch1-NRRHD [1], 0.17; in assay [2], 3.37; in [3], 3.17; in [5], 0.05; in assay [6], 3.48. For the same molecule, the ELISA reading came out at 3.52 in [7], 0.04 in [8] and 3.51 in assay [9]. For the same molecule, in [4], the Kd was below 0.33 nM. This molecule also gave a koff in assay [4] below 0.00017 s⁻¹. Further, the binding result with murine Notch1-NRRHD [10] is “no binding”.

The values above are taken from patent US20120093813A1 (Pfizer, published 2012).
